Assay results as given in article PMC12349009 (2025).
Residue numbers refer to the chain shown, from its start.

Columns and labels:
[1] = target: T1, soluble recombinant NKp65 ectodomain with proline at position 131 (NKp65-Pro131) (human, UniProt D3W0D1 63-207, biotin on the N-terminal BirA tag (enzymatic, BirA ligase)); assay: SPR; KD1 of bivalent fit, multi-cycle kinetics
T1 chain: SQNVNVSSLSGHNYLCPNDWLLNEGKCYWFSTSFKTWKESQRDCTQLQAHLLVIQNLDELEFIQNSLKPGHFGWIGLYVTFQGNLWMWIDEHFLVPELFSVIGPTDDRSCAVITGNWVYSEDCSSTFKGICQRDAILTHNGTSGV

[2] = target: T2, soluble recombinant NKp65 ectodomain with threonine at position 131 (NKp65-Thr131) (human, UniProt D3W0D1 63-207, substitution of proline by threonine at amino acid position 131, biotin on the N-terminal BirA tag (enzymatic, BirA ligase)); assay: SPR; KD1 of bivalent fit, multi-cycle kinetics
T2 sequence: T1 chain with P69T

[3] = target: soluble recombinant NKp65 ectodomain with threonine at position 131 (NKp65-Thr131) (human) (UniProt D3W0D1); assay: SPR; single-cycle kinetics, Biacore X100; 73.4 ± 12.4 RU biotinylated NKp65 immobilised on a streptavidin chip (Sensor Chip SA), pulsed 120 s with sKACL 0.247-20 nM, flow 30 µl/min, final dissociation 600 s; bivalent binding model
[4] = target: soluble recombinant NKp65 ectodomain with proline at position 131 (NKp65-Pro131) (human) (UniProt D3W0D1); assay: as above
[5] = target: soluble recombinant NKp65 ectodomain with threonine at position 131 (NKp65-Thr131) (human) (UniProt D3W0D1); assay: SPR; mean of KD1 (bivalent model) from at least three measurements, protein produced independently twice, 2 different chip lots; biotinylated NKp65 immobilised on a streptavidin chip, sKACL as analyte; which runs were pooled is not told
[6] = target: soluble recombinant NKp65 ectodomain with proline at position 131 (NKp65-Pro131) (human) (UniProt D3W0D1); assay: as above

B1: recombinant KACL ectodomain (sKACL) (ligand)
chain: WSKHAKPVACSGDWLGVRDKCFYFSDDTRNWTASKIFCSLQKAELAQIDTQEDMEFLKRYAGTDMHWIGLSRKQGDSWKWTNGTTFNGWFEIIGNGSFAFLSADGVHSSRGFIDIKWICSKPKYFL
Kd [1]: 13.6 nM
Kd [2]: 57.1 nM
Kd [3]: 20.3 nM
Kd [4]: 2.6 nM
KD1 (bivalent fit) [5]: 35 nM
KD1 (bivalent fit) [6]: 8.2 nM
